Measurements: PMC9035363

How the values were obtained:
[1] = biological target: SARS-CoV-2 S D614G on CHO cells (SARS-CoV-2) (UniProt P0DTC2)
[2] = biological target: SARS-CoV-2 S S494P on CHO cells (SARS-CoV-2) (UniProt P0DTC2)
[3] = biological target: RBD-Fc E484K (SARS-CoV-2) (UniProt P0DTC2)
[4] = biological target: RBD-Fc L452R (SARS-CoV-2) (UniProt P0DTC2)
[5] = biological target: RBD-Fc K417E (SARS-CoV-2) (UniProt P0DTC2)
[6] = biological target: RBD-Fc Y453F (SARS-CoV-2) (UniProt P0DTC2)
[7] = biological target: RBD-Fc D420N (SARS-CoV-2) (UniProt P0DTC2)
[8] = biological target: RBD N440D on yeast (SARS-CoV-2) (UniProt P0DTC2)
[9] = biological target: SARS-CoV-2 S S494P on CHO cells (SARS-CoV-2) (UniProt P0DTC2); remark: listed apart in the source
[10] = biological target: SARS-CoV-2 S N439K on CHO cells (SARS-CoV-2) (UniProt P0DTC2)
[11] = biological target: RBD-Fc L452R (SARS-CoV-2) (UniProt P0DTC2); remark: listed apart in the source
[12] = biological target: SARS-CoV-2 S S477N on CHO cells (SARS-CoV-2) (UniProt P0DTC2)
[13] = biological target: SARS-CoV-2 S D614G on CHO cells (SARS-CoV-2) (UniProt P0DTC2); remark: listed apart in the source
[14] = biological target: RBD-Fc K417T (SARS-CoV-2) (UniProt P0DTC2)
[15] = biological target: RBD-Fc K417N (SARS-CoV-2) (UniProt P0DTC2)
[16] = biological target: SARS-CoV-2 S N501Y on CHO cells (SARS-CoV-2) (UniProt P0DTC2)
[17] = biological target: RBD-Fc N460S (SARS-CoV-2) (UniProt P0DTC2); assay: SPR
[18] = biological target: RBD-Fc S494P (SARS-CoV-2) (UniProt P0DTC2); assay: SPR
[19] = biological target: RBD-Fc F486I (SARS-CoV-2) (UniProt P0DTC2); assay: SPR
[20] = biological target: RBD-Fc N460T (SARS-CoV-2) (UniProt P0DTC2); assay: SPR
[21] = biological target: RBD-Fc E484D (SARS-CoV-2) (UniProt P0DTC2); assay: SPR
[22] = biological target: RBD-Fc E484K (SARS-CoV-2) (UniProt P0DTC2); assay: SPR
[23] = biological target: RBD-Fc E484Q (SARS-CoV-2) (UniProt P0DTC2); assay: SPR
[24] = biological target: RBD-Fc G476S (SARS-CoV-2) (UniProt P0DTC2); assay: SPR
[25] = biological target: RBD-Fc L452R (SARS-CoV-2) (UniProt P0DTC2); assay: SPR
[26] = biological target: RBD-Fc K417E (SARS-CoV-2) (UniProt P0DTC2); assay: SPR
[27] = biological target: RBD-Fc F486V (SARS-CoV-2) (UniProt P0DTC2); assay: SPR
[28] = biological target: RBD-Fc N501Y (SARS-CoV-2) (UniProt P0DTC2); assay: SPR
[29] = biological target: RBD-Fc V483A (SARS-CoV-2) (UniProt P0DTC2); assay: SPR
[30] = biological target: RBD-Fc K417T (SARS-CoV-2) (UniProt P0DTC2); assay: SPR
[31] = biological target: RBD-Fc Y489H (SARS-CoV-2) (UniProt P0DTC2); assay: SPR
[32] = biological target: RBD-Fc K417N (SARS-CoV-2) (UniProt P0DTC2); assay: SPR
[33] = biological target: RBD-Fc F490S (SARS-CoV-2) (UniProt P0DTC2); assay: SPR
[34] = biological target: RBD-Fc S477N (SARS-CoV-2) (UniProt P0DTC2); assay: SPR
[35] = biological target: RBD-Fc N460K (SARS-CoV-2) (UniProt P0DTC2); assay: SPR
[36] = biological target: RBD-Fc Y453F (SARS-CoV-2) (UniProt P0DTC2); assay: SPR
[37] = biological target: RBD-Fc N439K (SARS-CoV-2) (UniProt P0DTC2); assay: SPR
[38] = biological target: RBD-Fc D420N (SARS-CoV-2) (UniProt P0DTC2); assay: SPR

“LY-CoV1404 (bebtelovimab), full-length human IgG1 mAb (antibody)” showed a pseudovirus neutralisation (second system of Table 3D), IC50 [1] of 3 ng/mL, a pseudovirus susceptibility IC50 [2] of 1 ng/mL and a pseudovirus (whole S) susceptibility IC50 [3] of 2 ng/mL. For the same substance, the pseudovirus (whole S) susceptibility IC50 [4] was 2 ng/mL, the pseudovirus (whole S) susceptibility IC50 [5] was 4 ng/mL and the pseudovirus (whole S) susceptibility IC50 [6] was 2 ng/mL. It also gave a pseudovirus (whole S) susceptibility IC50 [7] of 2 ng/mL, a pseudovirus (whole S) susceptibility IC50 [8] of 6 ng/mL and a VSV pseudovirus neutralisation IC50 [9] of 2 ng/mL. The VSV pseudovirus neutralisation IC50 [10] was 2 ng/mL, the VSV pseudovirus neutralisation IC90 [10] was 7 ng/mL and the VSV pseudovirus (whole S) neutralisation IC50 [11] was less than 1 ng/mL. It also gave a lentiviral pseudovirus (whole S) neutralisation IC90 [11] of 10 ng/mL, a VSV pseudovirus neutralisation IC50 [12] of 5 ng/mL and a VSV pseudovirus neutralisation IC90 [12] of 26 ng/mL. It also gave a lentiviral pseudovirus neutralisation IC50 [13] of 3 ng/mL, a lentiviral pseudovirus neutralisation IC90 [13] of 10 ng/mL and a VSV pseudovirus (whole S) neutralisation IC50 [14] of 2 ng/mL. The VSV pseudovirus (whole S) neutralisation IC50 [15] was 2 ng/mL, the VSV pseudovirus neutralisation IC50 [16] was 2 ng/mL and the VSV pseudovirus neutralisation IC90 [16] was 7 ng/mL.

In the case of LY-CoV1404 Fab (papain digestion), the Kd [17] is reported as 2.6 nM, the Kd [18] is reported as 3.46 nM and the Kd [19] is reported as 2.69 nM. The Kd [20] was 3.52 nM, the Kd [21] was 3.37 nM and the Kd [22] was 3.19 nM. For the same substance, the Kd [23] was 3.74 nM, the Kd [24] was 4.35 nM and the Kd [25] was 4.94 nM. The Kd [26] was 2.59 nM, the Kd [27] was 2.82 nM and the Kd [28] was 2.9 nM. The Kd [29] was 3.29 nM, the Kd [30] was 2.54 nM and the Kd [31] was 3.06 nM. It also gave a Kd [32] of 3.08 nM, a Kd [33] of 2.99 nM and a Kd [34] of 3.45 nM. For the same substance, the Kd [35] was 3.4 nM, the Kd [36] was 3.28 nM and the Kd [37] was 5.05 nM. The Kd [38] was 4.09 nM.
